# Experimental data reported in the nanobody polyreactivity screen of Harvey et al. (2022).
# Test: yeast display, Sf9 membrane polyspecificity reagent, FACS + sequencing; frameworks hold sequencing errors
# How it was run: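 Galactose-induced (36–48 hours) yeast carrying a synthetic nanobody display library were exposed to 10% biotinylated, detergent-solubilized Sf9 membrane reagent at 4 °C for 1 hour. FACS followed streptavidin microbead enrichment, using low and high (top ~1%) gates for expression (anti-HA) and reagent binding (streptavidin). Colony PCR, MiSeq 2 × 250 sequencing and CDR-length filtering followed. Labels for polyreactivity reflect the gate of origin.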
row,Sequence,polyreactivity (PSR sort gate)
1,QVQLVESGGGLVQAGGSLRLSCAASGSTFALYAMGWYRQAPGKERELVAAITRGDRTYYADSVKGRFTISRDNAKNTVYLQMNSLKAEDSAVYYCAAGYFGLWVRYDYWGQGSQVTVSS,low polyreactivity
2,QVQLVESGGGLVQAGGSLRLSCAASGSTFALYAMGWYRQAPGKERELVAVITSGGSTYYADSVKGRFTISRDNAKNTVYLQMNSLKPEDTAVYYCAARRHVRKGPLGYWGQGTQVTLSS,high polyreactivity
3,QVQLVESGGGLVQAGGSLRLSCAASGSTFAPNAMGWYRQAPGKERELVAGISWGDSTYYADSVKGRFTISRDNAKNTVYLQMNSLKPEDTAVYYCNVDDPFYSGVVEFDYWGQGTQVTVSS,low polyreactivity
4,QVQLVESGGGLVQAGGSLRLSCAASGSTFAPNTMGWYRQAPGKERELVAGITDGTITTYADSVKGRFTISRDNAKNTVYLQMNSLKPEDTAVYYCATRQSWYPRWMDYWGQGTQVTVSS,high polyreactivity
5,QVQLVESGGGLVQAGGSLRLSCAASGSTFAPYAMGWYRQAPGKETELVARITGSGGGTTYADSVKGRFTISRDNAKNTVYLQMNSLKPEDTAVYYCAAPRASQYGDDYWGQGTQVTVSS,high polyreactivity
6,QVQLVESGGGLVQAGGSLRLSCAASGSTFAQYAMGWYRQAPGKERELVAAISRGGGSTYYADSVKGRFTISRDNAKNTVYLQMNSLKPEDTAVYYCNARTSHYDKYGYWGQGTQVTVSS,high polyreactivity
7,QVQLVESGGGLVQAGGSLRLSCAASGSTFARNAMGWFRQAPGKEREFVASIRWGRGTTYYADSVKGRFTNSRDNAKNTLYLQLNSMIPEDSAVYYCATRNSSKRRGYYYWGQGTQVNVSS,high polyreactivity
8,QVQLVESGGGLVQAGGSLRLSCAASGSTFARNAMGWYRQAPGKERELVAAISSGGTTNYADSVKGRFTISRDNAKNTVYLQMNSLKPEDTAVYYCNAGFRNVLTSGYLYDYWGQGTQVTVSS,low polyreactivity
9,QVQLVESGGGLVQAGGSLRLSCAASGSTFASNAMGWYRQAPGKARELVAGISSSDGGTYYADSVKGRFTISRDIAKYNVYLEMKSLKPEDTAVYSCNAPPGTFQWQGHSDYWGQGTEVTVSS,low polyreactivity
10,QVQLVESGGGLVQAGGSLRLSCAASGSTFASNVMGWYRQAPGKERELVAAITRGDRTHYADSVKGRFTISRDNAKNTVYLQMNSLKPEDTAVYYCAARFIFWVYDYDYWGQGSQVTVSS,low polyreactivity
11,QVQLVESGGGLVQAGGSLRLSCAASGSTFASYAMGWYRQAPGKERELVAAIRWRGGTTYYADSVKGRFTISRDNAKNTVYLQMNSLKPDDTAVYYCNADRYYLYYYWGQGTQVTVSS,low polyreactivity
12,QVQLVESGGGLVQAGGSLRLSCAASGSTFATYAMGWYRPAPGKERELVAAITRGGRTNYADSVKGRFTISRDNAKNTVYLQMNSLKPEDTSVYYCAADYIYGYFWRFGYWGQGTQVTVSS,low polyreactivity
13,QVQLVESGGGLVQAGGSLRLSCAASGSTFATYAMGWYRQAPGKERELVAVITRGGRTYYADSVKGRFTISRDNAKNTVYLQMNSLKPEDTAVYYCAAKAYTYYARIGFDYWGQGTQVTVSS,high polyreactivity
14,QVQLVESGGGLVQAGGSLRLSCAASGSTFAVNAMGWYRQAPGKERELVAAISGSGGRTYYADSVKGRFTISRDNAKNTVYLQMNSLKPEETAFYYCATELRAPYRSSGAYHYDYWGQGTQVTVSS,low polyreactivity
15,QVQLVESGGGLVQAGGSLRLSCAASGSTFAYNAMGWYIQAPGKERELVAAISTSGGSTNYADSVKGRFTISRDMSKNTVYLQMNSLKPEVTAVYFCAARPKTPSITRYGYWGQGTHVTVSS,high polyreactivity
16,QVQLVESGGGLVQAGGSLRLSCAASGSTFAYNAMGWYRQAPGKERELVARISSSGDITYYADSVKGRFTISRDNAKNTVYLQMNCLKPEDTAVYYCAKRYLTRYKGYYYWGQGTQVTVSS,high polyreactivity
17,QVQLVESGGGLVQAGGSLRLSCAASGSTFAYNDMGWYRQAQGKERELVADIRSGGNTYADSVKGRFTISRDNAKNTVYLQMNSLKPVDTAVYYCAVDGGEFSSYGYWGQGTQLTVSS,low polyreactivity
18,QVQLVESGGGLVQAGGSLRLSCAASGSTFAYNTMGWYRQAPGKERELVAAISQRGGSTYADSVKGRFTISRDNAKNTVYLQMNSLKPEETAVYYCAAVGYTYKFDYWGQGTQVTVSS,low polyreactivity
19,QVQLVESGGGLVQAGGSLRLSCAASGSTFAYYAMGWYRQAPGKERELVAAISRTGGSTYYADSVKGRFTISRDNAKNTVYLQMNSLKPEDTAVYYCNARAPVGTFDYDYWGQGTQVTVSS,low polyreactivity
20,QVQLVESGGGLVQAGGSLRLSCAASGSTFAYYAMGWYRQAPGKERELVAAISSGGSTYYADSVKGRFTISRDNAKNTVYLQMNSLKPEDTAVYYCNKLWVGKFKRYEFGYWGQGTQVTVSS,low polyreactivity
21,QVQLVESGGGLVQAGGSLRLSCAASGSTFAYYAMGWYRQAPGKERELVAAITWSGGSTSYADSVKGRFTISRDNAKNTVYLQMNSLKPEDTGVYYCNADDKPLDWREYNYWGQGTQVTVSS,low polyreactivity
22,QVQLVESGGGLVQAGGSLRLSCAASGSTFAYYAMGWYSPAPGKERELVAAISSSGGRTYYADSVKGRFTISRDNAKNTVYLQMYSLKPEDTAVYYCAARSPYYSASVRYDYWGQGTQVTVSS,high polyreactivity

row,Sequence,polyreactivity (PSR sort gate)
1,QVQLVESGGGLVQAGGSLRLSCAASGSTFAYYTMGWYRQAPGKERELVAAITWSGGRTFYADSVKGRFTISRDNAKNTVYLQMNSLKPEDTAVYYCNTDDSHRPPRTPDDYNYWGQGTQVTVSS,high polyreactivity
2,QVQLVESGGGLVQAGGSLRLSCAASGSTFAYYVMGWYRQAPGTERELVAAITSSGGRTYYADSVKGRFTISRDNAKNTVYLQMNSLKPEDTAVYYCAKVSQRGVDNSDYDYWGQGTQVTVSS,high polyreactivity
3,QVQLVESGGGLVQAGGSLRLSCAASGSTFCFNAMGWSRQAPGKEREMVAAIPSRGGSTYYADSVKGRFTSSRDNAKKTVYLQMKSLKPEDTAVYYCASDYFGFSYAGYNYWGQGTQVTVSS,low polyreactivity
4,QVQLVESGGGLVQAGGSLRLSCAASGSTFDANTMGWYRQAPGKERELVAAISSNGGRTYYADSVKGRFTISRDNAKNTVYLLMNSLKPEDTAVYYCAASSYYRYRETYDYWGLGTQVTVSS,high polyreactivity
5,QVQLVESGGGLVQAGGSLRLSCAASGSTFDAYAMGWYRQAPGKERELVAAITNAGSTNYADSVKGRFTISRDNAKNTVYLQMNSLKPEDTAVFYCAADVSRWLDYGYDYWGQGTQVTVSS,low polyreactivity
6,QVQLVESGGGLVQAGGSLRLSCAASGSTFDDNALGWYRQAPGKERELVAAISSRGSTYYADSVKGLFTISRDNAKNTVYLQMNSLKPEDTAVYYCAKRTYRYYGLNAYYYWGQGTQVTVSS,high polyreactivity
7,QVQLVESGGGLVQAGGSLRLSCAASGSTFDDNAMGWYRQAPGKERELVASINYSTGSTYYADSVKGRFTISRDNAKNTVYLQMNSLKPEDTAVYYCAKDLRRYLSWWYRYPYDYWGQGTQVTVSS,low polyreactivity
8,QVQLVESGGGLVQAGGSLRLSCAASGSTFDDNAMGWYRQAPGKERELVASITYRGGSTYYADSVKGRFTISRDNAKNTVYLQMNSLKPEDTAVYYCAKGHYFKYDYWGQGTQVTVSS,low polyreactivity
9,QVQLVESGGGLVQAGGSLRLSCAASGSTFDDYAMGWYRQAPGKERELVAAISYSGGSTYYADSVKGRFTISRDNAKNTVYLQMNSLKPEDTAVYYCAADDLYTDYETWWRRGDYCGQGTQVTVSS,low polyreactivity
10,QVQLVESGGGLVQAGGSLRLSCAASGSTFDFNAMGWYRQAPGKERELVAAITGSDGNTYYADSVKGRFTISRDNAKNNVYLQMNTLTPEDTAVYYFAADFSWWSKYVVLYDYWGQGTQVTVSS,low polyreactivity
11,QVQLVESGGGLVQAGGSLRLSCAASGSTFDFYAMGWYRQAPGKERELVAAISKSGGSTYYADSVKGRFTISRDTAKNTVYLQMNSLKPEDTAVYYCAAYVSYRMYWGQGTQVTVST,high polyreactivity
12,QVQLVESGGGLVQAGGSLRLSCAASGSTFDGNAMGWNRQAPGKERELVAAITRAGRTSYADSVKGRFTISRDNAKNTVYLQMNCLKPEDTAVFYCAKGGYDYWGQGTQVTVSS,low polyreactivity
13,QVQLVESGGGLVQAGGSLRLSCAASGSTFDGNAMGWYRQAPGKERELDAAISDGDSTTYADSVKGRFTISRDNAKNTVYLQMNSLKPEDTAVYYCNADVARSKSQASAYDYWGQVTQVTVSS,low polyreactivity
14,QVQLVESGGGLVQAGGSLRLSCAASGSTFDGYAMGWYRQAPGKERELVAAITSSDGSTYYADSVKGRFTISRDNAKNTVYLQMNSLKPEDTAVSDCNAEGYDWEFGYWGQGTQVTVSS,low polyreactivity
15,QVQLVESGGGLVQAGGSLRLSCAASGSTFDINAMGWYRQAPGKERELFASITFSGGSTYYADSVKGRITISRDYEKNNVYLQMNSLKPEDTAVYYCAADSSGEYPGGYWGQGTQVTVSS,low polyreactivity
16,QVQLVESGGGLVQAGGSLRLSCAASGSTFDINAMGWYRQAPGKERELVASITFCGGSTYYADSVKGRFTISRDNAKNTVYLEMNSLKPEDTAVYYCAADSSGEYPGGYWGQGTQVTVSS,low polyreactivity
17,QVQLVESGGGLVQAGGSLRLSCAASGSTFDIYAMGWYRQAPGKERELVAAITFSGGSTYYADSVKGRFTISRDNAKNTVYLQMNSLKPEDTAVDYCAARNDYYKTFSGYDYWGQGTQVTVSS,low polyreactivity
18,QVQLVESGGGLVQAGGSLRLSCAASGSTFDKYAMGWYRQAPGKERELVAVISGSGGRTYYADSVKGRFTISRDNAKNTVYLQMNSLKPEDTAVYYCAARGSFKKGYWGQGTQVTVSS,high polyreactivity
19,QVQLVESGGGLVQAGGSLRLSCAASGSTFDNYALGWYRQAPGKERELVAAINWSGSSTYYADSVKGRFTISRDNAKNTVYLQMNSLKPEDTAVYYCNKTGVTPKTATDGDYWGQGTQVTVSS,low polyreactivity
20,QVQLVESGGGLVQAGGSLRLSCAASGSTFDPNAMGWYRQAPGKERELVAAITGRGGSTYYADSVKGRFTISRDTAKNTVYLQMNSLKPEDTAVYYCAAEYLGSIDTSYNYWGQGTQVTVSS,low polyreactivity
21,QVQLVESGGGLVQAGGSLRLSCAASGSTFDPNAMGWYRQAPRKEREFVAAIRVSGDNTYYADSVKGRFTISRDNAKNTVYLLMNSLKPEDTAVYYCAATGTVLGSVDYWGQGTQVTVSS,low polyreactivity
